Experimental data reported in article PMC11786912 (Computational and Structural Biotechnology Journal, 2025).
Ends that are not written are not given here. * marks the point of attachment. Biotin = O=C1N[C@H]2[C@H](CS[C@H]2CCCCC(=O)*)N1; Ahx = NCCCCCC(=O)O

T1: biotinylated CD99 peptide target epitope (Biotin-Ahx-AVVDGENDDPRPPNP) (Homo sapiens (synthetic peptide))
T1 chain: {Biotin-Ahx}-AVVDGENDDPRPPNP


Assays:
[1] = molecular target: CD99 on the surface of Jurkat T cells (Homo sapiens (Jurkat, endogenous), UniProt P14209); assay: flow cytometry on cells
[2] = molecular target: T1, biotinylated CD99 peptide target …; assay: BLI

Sequence of CD99 on the surface of Jurkat T cells (P14209 23-185): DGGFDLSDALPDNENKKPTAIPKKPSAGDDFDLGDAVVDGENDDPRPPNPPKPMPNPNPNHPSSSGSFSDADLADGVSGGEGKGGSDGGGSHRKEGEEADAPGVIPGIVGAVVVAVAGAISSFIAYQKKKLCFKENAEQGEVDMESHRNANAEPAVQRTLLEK

Binder | binding result [1] | Kd [2] [nM]
HuScFvMT99/3^BP (His6X) (scFv, V domains shown) VH: QVQLQESGPGLVKPSETLSLTCTVSGGSIKDTYIHWVRQPPGKGLEWIGRIDPGNGNIKYDPKFQGRATISADTSKNQVSLNLDSVTAADTAIYYCARSGGYDFDYWGQGTLVTVSS VL: VLMTQSPSSLSASVGDRVTITCRSSQSLVHSNGNTYLHWYQQKPGQSPKLLIYTVSNRFSGVPDRFSGSGSGTDFTLTISSLQAEDVAVYYCSQSTYVPYTFGPGTKVDIK | binds | 264
HuScFvMT99/3^WT (His6X) (scFv, V domains shown) VH: QVQLQESGPGLVKPSETLSLTCTLSGFNIKDTYIHWVRQPPGKGLEWIGRIDPGNGNIKYDPKFQGRATISADTSKNQVSLNLDSVSAADTAIYYCARSGGYDFDYWGKGSTVTVSS VL: VQMTQSPSSLSASVGDRVTITCRSSQSLVHSNGNTYLHWYQQKPGKAPKLLIYTVSNRFSGVPSRFSGSGSGTDFTFTISSLQPEDIATYFCSQSTYVPYTFGPGTKVDIK |  | 135
HuScFvMT99/3^HY (His6X) (scFv, V domains shown) VH: QVQLQESGPGLVKPSETLSLTCTVSGGSIKDTYIHWVRQPPGKGLEWIGRIDPGNGNIKYDPKFQGRATISADTSKNQVSLNLDSVTAADTAIYYCARSGGYDFDYWGQGTLVTVSS VL: VQMTQSPSSLSASVGDRVTITCRSSQSLVHSNGNTYLHWYQQKPGKAPKLLIYTVSNRFSGVPSRFSGSGSGTDFTFTISSLQPEDIATYFCSQSTYVPYTFGPGTKVDIK | binds | 395
